This passage reports normalised SPOT signal, Boehringer light units (BLU); mean over the file's lines of this peptide results from PMC314469, “Protein Interaction Networks by Proteome Peptide Scanning” (PLoS Biology, 2004).

For the first assay, the target named is T1, Rvs167 SH3 (RV167_YEAST), P39743.
T1 chain: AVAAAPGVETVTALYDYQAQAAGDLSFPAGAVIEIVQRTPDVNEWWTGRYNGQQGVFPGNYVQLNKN
Description: SPOT array.
Consider LAGIRLVPVLPILL [YLR235C 75-88], for which the normalised SPOT signal, Boehringer light units (BLU); mean over the file's lines of this peptide worked out at 12800.

For the molecule KTVDKGLPMIPTYV [YDR516C 56-69], the normalised SPOT signal, Boehringer light units (BLU); mean over the file's lines of this peptide was 24.1.

Take KYIIKTEPESPEED [YLR133W 510-523]: the normalised SPOT signal, Boehringer light units (BLU); mean over the file's lines of this peptide came out at 34.

KYSFKLVPPQPGSK [YBL085W 849-862] registered a normalised SPOT signal, Boehringer light units (BLU); mean over the file's lines of this peptide of 40.4.

The molecule KVSSKYDPDNPNKD [YBR235W 48-61] came in with a normalised SPOT signal, Boehringer light units (BLU); mean over the file's lines of this peptide of 95.8.

In turn, LDKGKHVPSKPVSN [YKL054C 145-158] displayed a normalised SPOT signal, Boehringer light units (BLU); mean over the file's lines of this peptide of 60.9.

Molecule KVQIKKVPTDPSSS [YBR136W 25-38] showed a normalised SPOT signal, Boehringer light units (BLU); mean over the file's lines of this peptide of 44.5.

The target in another assay is T2, Boi1 SH3 (BOI1_YEAST), P38041.
T2 chain: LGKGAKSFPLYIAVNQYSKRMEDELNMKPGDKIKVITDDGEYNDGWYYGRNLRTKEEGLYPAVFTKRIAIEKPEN
Description: SPOT array.
For LAGIRLVPVLPILL [YLR235C 75-88], the normalised SPOT signal, Boehringer light units (BLU); mean over the file's lines of this peptide was determined as 63.1.

KTVDKGLPMIPTYV [YDR516C 56-69] displayed a normalised SPOT signal, Boehringer light units (BLU); mean over the file's lines of this peptide of 14.3.

KYIIKTEPESPEED [YLR133W 510-523] displayed a normalised SPOT signal, Boehringer light units (BLU); mean over the file's lines of this peptide of 100.

Molecule KYSFKLVPPQPGSK [YBL085W 849-862] returned a normalised SPOT signal, Boehringer light units (BLU); mean over the file's lines of this peptide of 198.

With KVSSKYDPDNPNKD [YBR235W 48-61], the normalised SPOT signal, Boehringer light units (BLU); mean over the file's lines of this peptide is 127.

As to LDKGKHVPSKPVSN [YKL054C 145-158], the normalised SPOT signal, Boehringer light units (BLU); mean over the file's lines of this peptide is 364.

As for KVQIKKVPTDPSSS [YBR136W 25-38], the normalised SPOT signal, Boehringer light units (BLU); mean over the file's lines of this peptide amounted to 1460.

For a further assay, the target named is T3, Myo5 SH3 (MYO5_YEAST), Q04439.
T3 chain: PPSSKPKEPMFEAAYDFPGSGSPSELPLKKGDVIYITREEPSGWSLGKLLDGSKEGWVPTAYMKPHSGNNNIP
In words: SPOT array.
The molecule LAGIRLVPVLPILL [YLR235C 75-88] registered a normalised SPOT signal, Boehringer light units (BLU); mean over the file's lines of this peptide of 152.

As to KTVDKGLPMIPTYV [YDR516C 56-69], the normalised SPOT signal, Boehringer light units (BLU); mean over the file's lines of this peptide came to 76.8.

KYIIKTEPESPEED [YLR133W 510-523] had a normalised SPOT signal, Boehringer light units (BLU); mean over the file's lines of this peptide of 246.

As to KYSFKLVPPQPGSK [YBL085W 849-862], the normalised SPOT signal, Boehringer light units (BLU); mean over the file's lines of this peptide came out at 219.

With KVSSKYDPDNPNKD [YBR235W 48-61], the normalised SPOT signal, Boehringer light units (BLU); mean over the file's lines of this peptide came out at 434.

For the molecule LDKGKHVPSKPVSN [YKL054C 145-158], the normalised SPOT signal, Boehringer light units (BLU); mean over the file's lines of this peptide was 201.

Regarding KVQIKKVPTDPSSS [YBR136W 25-38], the normalised SPOT signal, Boehringer light units (BLU); mean over the file's lines of this peptide is 191.

A further assay has as its target T4, Yhr016c SH3 (YSC84_YEAST), P32793.
T4 chain: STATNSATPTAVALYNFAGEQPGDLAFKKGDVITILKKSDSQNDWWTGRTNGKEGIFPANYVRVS
Description: SPOT array.
For LAGIRLVPVLPILL [YLR235C 75-88], the normalised SPOT signal, Boehringer light units (BLU); mean over the file's lines of this peptide is 493.

As for KTVDKGLPMIPTYV [YDR516C 56-69], the normalised SPOT signal, Boehringer light units (BLU); mean over the file's lines of this peptide was found to be 20.1.

Take KYIIKTEPESPEED [YLR133W 510-523]: the normalised SPOT signal, Boehringer light units (BLU); mean over the file's lines of this peptide was 34.1.

Take KYSFKLVPPQPGSK [YBL085W 849-862]: the normalised SPOT signal, Boehringer light units (BLU); mean over the file's lines of this peptide was determined as 29.7.

As for KVSSKYDPDNPNKD [YBR235W 48-61], the normalised SPOT signal, Boehringer light units (BLU); mean over the file's lines of this peptide turned out to be 32.1.

Regarding LDKGKHVPSKPVSN [YKL054C 145-158], the normalised SPOT signal, Boehringer light units (BLU); mean over the file's lines of this peptide amounted to 4.8.

Consider KVQIKKVPTDPSSS [YBR136W 25-38], for which the normalised SPOT signal, Boehringer light units (BLU); mean over the file's lines of this peptide was determined as 13.5.

The target of another assay is Sho1 SH3 (SHO1_YEAST), P40073. In words: SPOT array.
Sho1 SH3 (SHO1_YEAST), P40073, sequence (P40073 295-366): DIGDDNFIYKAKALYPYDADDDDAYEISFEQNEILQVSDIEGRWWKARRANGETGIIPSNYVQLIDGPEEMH
LAGIRLVPVLPILL [YLR235C 75-88] displayed a normalised SPOT signal, Boehringer light units (BLU); mean over the file's lines of this peptide of 22.2.

With KTVDKGLPMIPTYV [YDR516C 56-69], the normalised SPOT signal, Boehringer light units (BLU); mean over the file's lines of this peptide turned out to be 8310.

KYIIKTEPESPEED [YLR133W 510-523] yielded a normalised SPOT signal, Boehringer light units (BLU); mean over the file's lines of this peptide of 55.5.

For KYSFKLVPPQPGSK [YBL085W 849-862], the normalised SPOT signal, Boehringer light units (BLU); mean over the file's lines of this peptide is 70.4.

KVSSKYDPDNPNKD [YBR235W 48-61] yielded a normalised SPOT signal, Boehringer light units (BLU); mean over the file's lines of this peptide of 31.3.

With LDKGKHVPSKPVSN [YKL054C 145-158], the normalised SPOT signal, Boehringer light units (BLU); mean over the file's lines of this peptide is 76.4.

Molecule KVQIKKVPTDPSSS [YBR136W 25-38] had a normalised SPOT signal, Boehringer light units (BLU); mean over the file's lines of this peptide of 28.2.

Another assay deals with T5, Yfr024 SH3 (LSB3_YEAST), P43603.
T5 chain: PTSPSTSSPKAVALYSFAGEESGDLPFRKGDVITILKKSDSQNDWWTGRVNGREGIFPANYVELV
In words: SPOT array.
LAGIRLVPVLPILL [YLR235C 75-88] came in with a normalised SPOT signal, Boehringer light units (BLU); mean over the file's lines of this peptide of 2480.

Molecule KTVDKGLPMIPTYV [YDR516C 56-69] came in with a normalised SPOT signal, Boehringer light units (BLU); mean over the file's lines of this peptide of 11.9.

Regarding KYIIKTEPESPEED [YLR133W 510-523], the normalised SPOT signal, Boehringer light units (BLU); mean over the file's lines of this peptide was 6.9.

Turning to KYSFKLVPPQPGSK [YBL085W 849-862], the normalised SPOT signal, Boehringer light units (BLU); mean over the file's lines of this peptide was 104.

Regarding KVSSKYDPDNPNKD [YBR235W 48-61], the normalised SPOT signal, Boehringer light units (BLU); mean over the file's lines of this peptide turned out to be 44.7.

Molecule LDKGKHVPSKPVSN [YKL054C 145-158] gave a normalised SPOT signal, Boehringer light units (BLU); mean over the file's lines of this peptide of 18.1.

Molecule KVQIKKVPTDPSSS [YBR136W 25-38] yielded a normalised SPOT signal, Boehringer light units (BLU); mean over the file's lines of this peptide of 9.9.

For a further assay, the target named is T6, Boi2 SH3 (BOI2_YEAST), P39969.
T6 chain: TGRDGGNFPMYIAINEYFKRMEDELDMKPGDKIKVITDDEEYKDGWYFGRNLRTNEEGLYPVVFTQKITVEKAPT
In words: SPOT array.
Turning to LAGIRLVPVLPILL [YLR235C 75-88], the normalised SPOT signal, Boehringer light units (BLU); mean over the file's lines of this peptide was determined as 22.4.

KTVDKGLPMIPTYV [YDR516C 56-69] registered a normalised SPOT signal, Boehringer light units (BLU); mean over the file's lines of this peptide of 5.

KYIIKTEPESPEED [YLR133W 510-523]: the normalised SPOT signal, Boehringer light units (BLU); mean over the file's lines of this peptide amounted to 39.6.

On to KYSFKLVPPQPGSK [YBL085W 849-862], for which the normalised SPOT signal, Boehringer light units (BLU); mean over the file's lines of this peptide was found to be 20.

Take KVSSKYDPDNPNKD [YBR235W 48-61]: the normalised SPOT signal, Boehringer light units (BLU); mean over the file's lines of this peptide is 23.8.

Molecule LDKGKHVPSKPVSN [YKL054C 145-158] gave a normalised SPOT signal, Boehringer light units (BLU); mean over the file's lines of this peptide of 12.7.

Consider KVQIKKVPTDPSSS [YBR136W 25-38], for which the normalised SPOT signal, Boehringer light units (BLU); mean over the file's lines of this peptide stood at 64.7.
